The values below come from patent US8940501.

For the assay, the target named is receptor of interferon alpha (printed only as 'receptor'), on Daudi cells. The assay is described as follows: cell-based or functional assay.

The substance “commercially available IFNα (from UniProt P01563 24-188) (ligand)” registered an IC50 (pg/mL), inhibition of Daudi cell proliferation of 15.5 pg/mL.
